The target in one data set is T1, UGT1A9 (Homo sapiens, UniProt O60656).
T1 construct: human recombinant UGT1A9
T1 sequence (O60656 26-530): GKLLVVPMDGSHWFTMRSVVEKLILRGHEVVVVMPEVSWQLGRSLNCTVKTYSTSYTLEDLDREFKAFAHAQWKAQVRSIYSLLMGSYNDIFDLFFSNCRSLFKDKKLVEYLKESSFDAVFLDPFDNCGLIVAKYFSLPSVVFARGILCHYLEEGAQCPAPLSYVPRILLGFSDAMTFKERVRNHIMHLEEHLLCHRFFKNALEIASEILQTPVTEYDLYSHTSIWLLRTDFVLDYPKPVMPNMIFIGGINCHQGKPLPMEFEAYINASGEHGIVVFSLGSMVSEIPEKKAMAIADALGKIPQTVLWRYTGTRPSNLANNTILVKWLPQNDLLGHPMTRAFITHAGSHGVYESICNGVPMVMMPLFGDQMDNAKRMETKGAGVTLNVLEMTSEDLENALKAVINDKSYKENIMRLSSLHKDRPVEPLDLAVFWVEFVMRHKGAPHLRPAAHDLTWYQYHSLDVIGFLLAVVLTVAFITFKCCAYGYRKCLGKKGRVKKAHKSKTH
Briefly: inhibition of PTU glucuronidation by recombinant UGT1A9, HPLC-MS/MS. As to conditions: read-out: Magnolol IC50. In kind it is biochemical.

Substrate in the data set “purified protein”: CCCc1cc(=O)[nH]c(=S)[nH]1
Nature of the data set: purified protein. Particulars: UDPGA.

Broadly, the IC50 is the concentration at which inhibition is half-maximal. With `C=CCc1ccc(O)c(-c2cc(CC=C)ccc2O)c1` [magnolol], the IC50 on UGT1A9 worked out at 1160 nM.

B1: UGT1A9 (Homo sapiens) (protein)
chain: GKLLVVPMDGSHWFTMRSVVEKLILRGHEVVVVMPEVSWQLGRSLNCTVKTYSTSYTLEDLDREFKAFAHAQWKAQVRSIYSLLMGSYNDIFDLFFSNCRSLFKDKKLVEYLKESSFDAVFLDPFDNCGLIVAKYFSLPSVVFARGILCHYLEEGAQCPAPLSYVPRILLGFSDAMTFKERVRNHIMHLEEHLLCHRFFKNALEIASEILQTPVTEYDLYSHTSIWLLRTDFVLDYPKPVMPNMIFIGGINCHQGKPLPMEFEAYINASGEHGIVVFSLGSMVSEIPEKKAMAIADALGKIPQTVLWRYTGTRPSNLANNTILVKWLPQNDLLGHPMTRAFITHAGSHGVYESICNGVPMVMMPLFGDQMDNAKRMETKGAGVTLNVLEMTSEDLENALKAVINDKSYKENIMRLSSLHKDRPVEPLDLAVFWVEFVMRHKGAPHLRPAAHDLTWYQYHSLDVIGFLLAVVLTVAFITFKCCAYGYRKCLGKKGRVKKAHKSKTH
Usually Km stands for the substrate concentration at which the rate is half of its maximum. Usually Vmax stands for the rate approached at saturating substrate. As for B1, in “purified protein”, the Km worked out at 15.27 ± 7.73 µM and the Vmax came out at 0.352 µmol/min/mg.

Values taken from paper PMC8622909 (Pharmaceuticals, 2021).
